Values belong to the binder of their own block, whether it stands above or below them.
Legend:
[1] = target: serum IgA of the coeliac disease patients that displayed reactivity towards both TG2 and TG6 (Example 5); assay: anti-TG6 IgA ELISA after preincubation of sera with 22.4 µg/ml soluble TG6
[2] = target: serum IgA of the gluten ataxia with enteropathy patients that displayed reactivity towards both TG2 and TG6 (Example 5); assay: as above
[3] = target: serum IgA of gluten ataxia with enteropathy patient GAE 16; assay: inhibition ELISA: serum preincubated with soluble TG6, then TG2-coated plate, IgA detection
[4] = target: serum IgA of the coeliac disease patients that displayed reactivity towards both TG2 and TG6 (Example 5); assay: anti-TG2 IgA ELISA after preincubation of sera with 22.4 µg/ml soluble TG6
[5] = target: serum IgA of the gluten ataxia with enteropathy patients that displayed reactivity towards both TG2 and TG6 (Example 5); assay: as above
[6] = target: serum IgG of coeliac disease patient CD1; assay: inhibition ELISA: serum preincubated with 50 µg/ml soluble TG2, then TG2-coated plate, IgG detection
[7] = target: serum IgA of coeliac disease patient CD1; assay: inhibition ELISA: serum preincubated with 50 µg/ml soluble TG2, then TG2-coated plate, IgA detection
[8] = target: serum IgA of gluten ataxia with enteropathy patient GAE 16; assay: inhibition ELISA: serum preincubated with soluble TG2, then TG2-coated plate, IgA detection
[9] = target: serum IgA of the coeliac disease patients that displayed reactivity towards both TG2 and TG6 (Example 5); assay: anti-TG6 IgA ELISA after preincubation of sera with 22.4 µg/ml soluble TG2
[10] = target: serum IgA of the gluten ataxia with enteropathy patients that displayed reactivity towards both TG2 and TG6 (Example 5); assay: as above
[11] = target: serum IgA of the coeliac disease patients that displayed reactivity towards both TG2 and TG6 (Example 5); assay: anti-TG2 IgA ELISA after preincubation of sera with 22.4 µg/ml soluble TG2
[12] = target: serum IgA of the gluten ataxia with enteropathy patients that displayed reactivity towards both TG2 and TG6 (Example 5); assay: as above

mean inhibition (%) [1]: 71% | mean inhibition (%) [4]: 1%
B1: recombinant human transglutaminase 6 with C-terminal hexahistidine-tag (enzyme, UniProt O95932 1-706, looked up, part only)
chain: MAGIRVTKVDWQRSRNGAAHHTQEYPCPELVVRRGQSFSLTLELSRALDCEEILIFTMETGPRASEALHTKAVFQTSELERGEGWTAAREAQMEKTLTVSLASPPSAVIGRYLLSIRLSSHRKHSNRRLGEFVLLFNPWCAEDDVFLASEEERQEYVLSDSGIIFRGVEKHIRAQGWNYGQFEEDILNICLSILDRSPGHQNNPATDVSCRHNPIYVTRVISAMVNSNNDRGVVQGQWQGKYGGGTSPLHWRGSVAILQKWLKGRYKPVKYGQCWVFAGVLCTVLRCLGIATRVVSNFNSAHDTDQNLSVDKYVDSFGRTLEDLTEDSMWNFHVWNESWFARQDLGPSYNGWQVLDATPQEESEGVFRCGPASVTAIREGDVHLAHDGPFVFAEVNADYITWLWHEDESRERVYSNTKKIGRCISTKAVGSDSRVDITDLYKYPEGSRKERQVYSKAVNRLFGVEASGRRIWIRRAGGRCLWRDDLLEPATKPSIAGKFKVLEPPMLGHDLRLALCLANLTSRAQRVRVNLSGATILYTRKPVAEILHESHAVRLGPQEEKRIPITISYSKYKEDLTEDKKILLAAMCLVTKGEKLLVEKDITLEDFITIKVLGPAMVGVAVTVEVTVVNPLIERVKDCALMVEGSGLLQEQLSIDVPTLEPQERASVQFDITPSKSGPRQLQVDLVSPHFPDIKGFVIVHVATAK
modifications: full-length C-terminal His6 tag
mean inhibition (%) [2]: 61% | percent blocked [3]: 37% | mean inhibition (%) [5]: 15%

percent blocked [6]: 93% | percent blocked [7]: 52% | mean inhibition (%) [9]: 18% | mean inhibition (%) [11]: 37%
B2: recombinant human transglutaminase 2 with N-terminal hexahistidine-tag (enzyme)
chain: HHHHHHAEELVLERCDLELETNGRDHHTADLCREKLVVRRGQPFWLTLHFEGRNYEASVDSLTFSVVTGPAPSQEAGTKARFPLRDAVEEGDWTATVVDQQDCTLSLQLTTPANAPIGLYRLSLEASTGYQGSSFVLGHFILLFNAWCPADAVYLDSEEERQEYVLTQQGFIYQGSAKFIKNIPWNFGQFEDGILDICLILLDVNPKFLKNAGRDCSRRSSPVYVGRVVSGMVNCNDDQGVLLGRWDNNYGDGVSPMSWIGSVDILRRWKNHGCQRVKYGQCWVFAAVACTVLRCLGIPTRVVTNYNSAHDQNSNLLIEYFRNEFGEIQGDKSEMIWNFHCWVESWMTRPDLQPGYEGWQALDPTPQEKSEGTYCCGPVPVRAIKEGDLSTKYDAPFVFAEVNADVVDWIQQDDGSVHKSINRSLIVGLKISTKSVGRDEREDITHTYKYPEGSSEEREAFTRANHLNKLAEKEETGMAMRIRVGQSMNMGSDFDVFAHITNNTAEEYVCRLLLCARTVSYNGILGPECGTKYLLNLNLEPFSEKSVPLCILYEKYRDCLTESNLIKVRALLVEPVINSYLLAERDLYLENPEIKIRILGEPKQKRKLVAEVSLQNPLPVALEGCTFTVEGAGLTEEQKTVEIPDPVEAGEEVKVRMDLLPLHMGLHKLVVNFESDKLKAVKGFRNVIIGPA
percent blocked [8]: 6% | mean inhibition (%) [10]: 14% | mean inhibition (%) [12]: 55%

Reference: patent US20130196336A1
